Stoichiometry N and stoichiometry N (binder chains per KaiC hexamer) data for two substances are collected here from PMC6769508.

Values joined by “and” are separate entries in the source; they are usually repeats but may differ in a detail not shown here. Equal values may be shown once.

As usually defined, the stoichiometry N is the number of molecules, sites or subunits per partner or assembly.

Experiment [1] concerns the target TeSasA, T. elongatus SasA (wild type, full-length) (Thermosynechococcus elongatus). Briefly: native MS; TeSasA or TeSasAN alone; 150 mM ammonium acetate, pH 6.8.
For experiment [2], the target named is TeKaiCDD, T. elongatus KaiC mutant with Ser431 and Thr432 substituted by aspartate residues (Thermosynechococcus elongatus) (UniProt Q79V60). Nature of the experiment: native MS; TeKaiCDD (20 µM) titrated with KaiB or SasA proteins, incubated at 37 °C for 6 h, buffer-exchanged into 150 mM ammonium acetate, pH 6.8; nanoflow ESI.
Sequence of TeKaiCDD, T. elongatus KaiC mutant with Ser431 and Thr432 substituted by aspartate residues (Thermosynechococcus elongatus) (Q79V60 other isoform, or with tags, fused parts or gaps mutant): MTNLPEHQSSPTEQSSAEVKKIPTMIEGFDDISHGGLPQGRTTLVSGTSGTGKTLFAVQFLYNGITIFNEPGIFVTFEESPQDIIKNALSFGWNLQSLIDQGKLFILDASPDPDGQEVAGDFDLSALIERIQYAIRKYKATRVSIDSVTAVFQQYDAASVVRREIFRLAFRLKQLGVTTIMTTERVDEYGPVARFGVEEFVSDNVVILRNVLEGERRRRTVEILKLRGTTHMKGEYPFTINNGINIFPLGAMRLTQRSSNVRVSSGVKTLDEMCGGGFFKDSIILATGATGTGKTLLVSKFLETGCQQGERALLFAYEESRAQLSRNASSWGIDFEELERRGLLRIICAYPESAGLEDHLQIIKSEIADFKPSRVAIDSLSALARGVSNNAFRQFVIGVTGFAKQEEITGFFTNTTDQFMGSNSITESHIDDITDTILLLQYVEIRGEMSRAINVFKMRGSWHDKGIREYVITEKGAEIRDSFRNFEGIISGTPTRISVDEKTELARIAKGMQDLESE

“TeSasA, T. elongatus SasA (wild type, full-length) (natural protein)”: in experiment [1], the stoichiometry N amounted to 2. Moreover, in experiment [2], the stoichiometry N (binder chains per KaiC hexamer) was 2 and 4 and 6.
As for “TeSasAN, the N-terminal domain of T. elongatus SasA (domain or fragment)”, in experiment [2], the stoichiometry N (binder chains per KaiC hexamer) is 2 and 3 and 4.
